Experimental findings from the Human Domainome abundance scans (Beltran et al. 2025) are described below.

± gives the uncertainty stated by the source.

First the molecules themselves.
B1: Peripheral plasma membrane protein CASK, residues 488 to 569; numbered along this chain, O14936 (parent)
chain: VRLVQFQKNTDEPMGITLKMNELNHCIVARIMHGGMIHRQGTLHVGDEIREINGISVANQTVEQLQKMLREMRGSITFKIVP

The variants in this series derive from B1. The experiment in a line: abundance fitness (aPCA) (normalised: wild type 0, dead -1); higher = more abundant; growth selection in yeast, the domain comes from the species named. Conditions: Homo sapiens.
Turning to Q7F, the abundance fitness was -0.021 ± 0.041.

For the variant Q7E, the abundance fitness was 0.048 ± 0.026.

Q7H: the abundance fitness turned out to be 0.009 ± 0.043.

As to Q7R, the abundance fitness was -0.025 ± 0.022.

Consider Q7N, for which the abundance fitness is 0.02 ± 0.043.

Turning to E48R, the abundance fitness was -0.037 ± 0.028.

For E48V, the abundance fitness was -0.06 ± 0.033.

As to E48W, the abundance fitness is -0.059 ± 0.036.

Take E48F: the abundance fitness is -0.362 ± 0.15.

Take A58M: the abundance fitness is -0.038 ± 0.041.

As for A58C, the abundance fitness is -0.042 ± 0.036.

A58I: the abundance fitness is 0.02 ± 0.053.

On to A58F, for which the abundance fitness is -0.087 ± 0.057.

Consider A58L, for which the abundance fitness was -0.052 ± 0.027.

For the variant A58G, the abundance fitness is -0.01 ± 0.021.

Turning to M20H, the abundance fitness was -0.038 ± 0.062.

In the case of M20G, the abundance fitness is -0.453 ± 0.031.

M20C: the abundance fitness is -0.19 ± 0.047.

On to M20S, for which the abundance fitness is -0.154 ± 0.033.

Turning to M20P, the abundance fitness is -0.325 ± 0.046.

Regarding M20I, the abundance fitness is -0.036 ± 0.053.

For M72H, the abundance fitness was -0.009 ± 0.046.

Consider M72N, for which the abundance fitness is -0.114 ± 0.046.

Take M72F: the abundance fitness came out at 0.039 ± 0.038.

M72P: the abundance fitness was -0.244 ± 0.045.

On to M72S, for which the abundance fitness stood at 0.007 ± 0.026.

Turning to M72T, the abundance fitness was -0.022 ± 0.031.

Take T10M: the abundance fitness is -0.007 ± 0.042.

Turning to T10A, the abundance fitness is -0.075 ± 0.028.

As for T10Y, the abundance fitness was -0.097 ± 0.064.

V57S: the abundance fitness was -0.158 ± 0.025.

For the variant V57L, the abundance fitness is -0.126 ± 0.024.

With V57I, the abundance fitness stood at 0.007 ± 0.063.

Take V57C: the abundance fitness was -0.046 ± 0.031.

Consider Q60Y, for which the abundance fitness was -0.022 ± 0.045.

On to Q60V, for which the abundance fitness is -0.118 ± 0.025.

Consider Q60R, for which the abundance fitness was -0.007 ± 0.021.

For the variant Q60F, the abundance fitness was 0.013 ± 0.041.

Q60L: the abundance fitness was -0.051 ± 0.025.

Q66A: the abundance fitness is -0.04 ± 0.023.

As for Q66P, the abundance fitness was -0.521 ± 0.034.

Regarding Q66G, the abundance fitness is -0.038 ± 0.021.

For the variant Q66C, the abundance fitness is -0.055 ± 0.032.

Q66R: the abundance fitness is -0.104 ± 0.02.

Turning to Q66H, the abundance fitness was -0.043 ± 0.039.

For I49M, the abundance fitness is -0.264 ± 0.097.

In the case of I49Q, the abundance fitness was -1 ± 0.24.

As for L69G, the abundance fitness was -0.443 ± 0.027.

With L69R, the abundance fitness was -1 ± 0.049.

On to L69Y, for which the abundance fitness was -0.357 ± 0.06.

N59E: the abundance fitness was -0.001 ± 0.028.

As for N59A, the abundance fitness was -0.047 ± 0.027.

Consider N59I, for which the abundance fitness was -0.324 ± 0.051.

Take N59G: the abundance fitness worked out at 0.02 ± 0.022.

As to T17I, the abundance fitness stood at 0.092 ± 0.03.

For T17K, the abundance fitness amounted to 0.015 ± 0.03.

Turning to T17L, the abundance fitness was found to be 0.019 ± 0.023.

Consider T17E, for which the abundance fitness is -0.019 ± 0.028.

For T17S, the abundance fitness is -0.051 ± 0.023.

For the variant V4Y, the abundance fitness was -0.19 ± 0.055.

Regarding V4M, the abundance fitness is -0.138 ± 0.037.

Regarding V4H, the abundance fitness was -0.235 ± 0.059.

For the variant V4L, the abundance fitness was -0.024 ± 0.025.

Regarding V4T, the abundance fitness was -0.239 ± 0.037.

As for V4G, the abundance fitness was -0.677 ± 0.028.

Turning to V4Q, the abundance fitness is -0.565 ± 0.045.

Consider Q40E, for which the abundance fitness was found to be 0.018 ± 0.024.

Consider Q40I, for which the abundance fitness was -0.05 ± 0.038.

As for Q40F, the abundance fitness was -0.103 ± 0.041.

With E22P, the abundance fitness was -0.03 ± 0.04.

For the variant E22V, the abundance fitness was -0.079 ± 0.027.

On to E22Y, for which the abundance fitness was 0.028 ± 0.066.

In the case of E22N, the abundance fitness is -0.075 ± 0.071.

Take E22C: the abundance fitness is -0.089 ± 0.045.

With P82M, the abundance fitness is -0.204 ± 0.077.

P82H: the abundance fitness was -0.151 ± 0.097.

For the variant P82C, the abundance fitness was -0.072 ± 0.093.

Take P82D: the abundance fitness was -0.039 ± 0.07.

Regarding P82V, the abundance fitness is -0.089 ± 0.056.

On to G34V, for which the abundance fitness is -0.447 ± 0.042.

For G34R, the abundance fitness is -0.194 ± 0.035.

Consider G34A, for which the abundance fitness was -0.247 ± 0.041.

Consider G34I, for which the abundance fitness is -0.478 ± 0.1.

With G34P, the abundance fitness is -0.373 ± 0.06.

For T61I, the abundance fitness was -0.642 ± 0.071.

As for T61S, the abundance fitness was -0.029 ± 0.025.

Take R2S: the abundance fitness is -0.084 ± 0.036.

Consider R2I, for which the abundance fitness is -0.029 ± 0.06.

Regarding R2A, the abundance fitness was -0.149 ± 0.03.

Regarding R2C, the abundance fitness was -0.09 ± 0.049.

As for R2Y, the abundance fitness is -0.002 ± 0.065.

Regarding M68H, the abundance fitness was -0.019 ± 0.04.

Consider M68T, for which the abundance fitness was -0.039 ± 0.03.

On to M68R, for which the abundance fitness stood at 0.002 ± 0.021.

For the variant M68S, the abundance fitness is -0.004 ± 0.026.

Turning to M68C, the abundance fitness is -0.026 ± 0.033.

For the variant M68D, the abundance fitness is 0.054 ± 0.04.

As to G74S, the abundance fitness is -0.381 ± 0.033.

On to G74M, for which the abundance fitness was -0.806 ± 0.077.

Regarding G74D, the abundance fitness was -0.131 ± 0.043.

On to V81P, for which the abundance fitness is -0.658 ± 0.08.

Regarding V81H, the abundance fitness is -0.073 ± 0.041.

As to K79F, the abundance fitness was -0.457 ± 0.056.

Consider K79T, for which the abundance fitness was -0.06 ± 0.031.

K79N: the abundance fitness was -0.091 ± 0.05.

Take G41S: the abundance fitness was -0.098 ± 0.025.

On to G41N, for which the abundance fitness was -0.072 ± 0.039.

As for G41V, the abundance fitness was -0.288 ± 0.025.

In the case of G35S, the abundance fitness amounted to 0.027 ± 0.026.

In the case of G35T, the abundance fitness was -0.013 ± 0.033.

For the variant G35D, the abundance fitness is -0.236 ± 0.043.

Regarding G35C, the abundance fitness is -0.066 ± 0.035.

Regarding G35P, the abundance fitness was -0.549 ± 0.048.

For the variant G35M, the abundance fitness was -0.128 ± 0.038.

As for A29C, the abundance fitness was -0.279 ± 0.064.

As for A29R, the abundance fitness was -0.097 ± 0.03.

Regarding A29L, the abundance fitness was -0.188 ± 0.041.

For A29V, the abundance fitness was -0.11 ± 0.034.

Consider A29Q, for which the abundance fitness is -0.008 ± 0.044.

A29H: the abundance fitness is -0.013 ± 0.078.

On to T77L, for which the abundance fitness was -0.064 ± 0.035.

In the case of T77V, the abundance fitness is -0.103 ± 0.046.

In the case of T77Q, the abundance fitness is -0.04 ± 0.039.

Consider T77C, for which the abundance fitness is -0.058 ± 0.051.

Regarding K67I, the abundance fitness was -0.06 ± 0.051.

On to K67F, for which the abundance fitness is -0.023 ± 0.052.

Take K67V: the abundance fitness is 0.002 ± 0.026.

Regarding K67S, the abundance fitness is -0.038 ± 0.029.

In the case of K67E, the abundance fitness was found to be 0.009 ± 0.032.

On to G15L, for which the abundance fitness is -0.62 ± 0.044.

Take G15R: the abundance fitness is -0.467 ± 0.037.

Take G15A: the abundance fitness is -0.395 ± 0.04.

On to G15Q, for which the abundance fitness is -0.362 ± 0.06.

I76E: the abundance fitness is -1.04 ± 0.098.

Consider I76Y, for which the abundance fitness was -0.339 ± 0.074.

For K8I, the abundance fitness was found to be 0.002 ± 0.045.

Turning to K8A, the abundance fitness was -0.071 ± 0.025.

Turning to K8S, the abundance fitness was -0.169 ± 0.029.

Turning to K8N, the abundance fitness was -0.098 ± 0.043.

Consider K8M, for which the abundance fitness is -0.087 ± 0.032.

K8D: the abundance fitness is -0.403 ± 0.045.

As to K8E, the abundance fitness is -0.505 ± 0.036.

In the case of K8T, the abundance fitness is -0.179 ± 0.032.

Regarding T42K, the abundance fitness was found to be 0.025 ± 0.031.

Regarding T42G, the abundance fitness came out at 0.005 ± 0.02.

On to T42D, for which the abundance fitness was -0.007 ± 0.032.

For T42V, the abundance fitness is -0.019 ± 0.023.

On to T42H, for which the abundance fitness was -0.065 ± 0.045.

As to R39C, the abundance fitness was -0.156 ± 0.055.

For the variant R39G, the abundance fitness was -0.136 ± 0.019.

Take R39I: the abundance fitness is -0.297 ± 0.04.

R39Q: the abundance fitness is -0.024 ± 0.031.

For the variant R39Y, the abundance fitness is -0.35 ± 0.048.

On to R39V, for which the abundance fitness was -0.197 ± 0.022.

Take S56T: the abundance fitness was -0.028 ± 0.031.

With N24E, the abundance fitness was -0.065 ± 0.026.

As to N24I, the abundance fitness was -0.89 ± 0.11.

As to N24H, the abundance fitness is -0.006 ± 0.037.

Take N24F: the abundance fitness is -0.252 ± 0.045.

With I37P, the abundance fitness is -0.42 ± 0.044.

Regarding I37G, the abundance fitness was -0.276 ± 0.023.

Regarding I37W, the abundance fitness is -0.333 ± 0.03.

In the case of I37S, the abundance fitness is -0.217 ± 0.028.

As to R30E, the abundance fitness is 0.027 ± 0.036.

On to R30G, for which the abundance fitness was -0.005 ± 0.024.

Consider M32A, for which the abundance fitness was found to be 0.058 ± 0.035.

Regarding M32P, the abundance fitness is -0.109 ± 0.051.
